The results in this text go back to patent US20150025225A1 (SHIONOGI, published 2015).

Experiment [1] concerns the target T1, human EL-411-459 fragment (human).
T1 construct: Used as HEK293 lysate
T1 chain: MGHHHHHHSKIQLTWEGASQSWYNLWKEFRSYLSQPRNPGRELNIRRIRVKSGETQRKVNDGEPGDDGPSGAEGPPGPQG
Kind of experiment: sandwich ELISA: 12B10 (5 ug/mL) captured on anti-mouse IgG-Fc plate, serial dilutions of fragment lysate, detection with biotin anti-C2-tag Fab and HRP-streptavidin, A450. Here is the method:
(§1) Assay buffer containing 15 μl of 12B10 antibody (5 μg/mL) was added to immobilized plate of anti-mouse IgG-Fc antibody and incubated for 2 hr. […] After washing the wells three times with 90 μl of washing buffer, 15 μL of assay buffer containing biotin-labeled anti-C2-tag (Fab) antibody and HRP-labeled Streptavidin (Thermo scientific) were added to the wells and incubated at room temperature for 1 hr. After washing the wells three times with 90 μl of washing buffer, 15 μL of TMB+-Substrate-Chromogen (DAKO) was added and incubated at room temperature for 30 min. The reaction was stopped with adding 15 μL of 0.05M H₂SO₄ and then measured absorbance 450 nm.

The target of experiment [2] is T2, human EL-411-500 fragment (human).
T2 construct: Used as HEK293 lysate
T2 chain: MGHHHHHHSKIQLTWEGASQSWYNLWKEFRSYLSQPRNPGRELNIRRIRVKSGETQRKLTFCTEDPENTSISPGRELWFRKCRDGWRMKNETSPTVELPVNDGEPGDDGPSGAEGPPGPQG
The experiment is described as above. Here is the method:
as §1

B1: 12B10 antibody (antibody, IgG2a, V domains shown)
VH: QVTLKESGPGILKPSQTLSLTCSFSGFSLSTSGMGVGWIRQPSGKGLEWLAHIWWNDEKYYNPSLKSQLTISKDTSRNQVFLKITSVDTADTATYYCARSYDGSPFPSWGQGTLVTVSA
VL: DIQMTQSPSSLSASLGGKVTITCKASQDINKYIAWFQHKPGKGPRLLMAYPFTLQPGIPSRFSGNGSGRDYSFSISNLEPEDIATYYCLQYDNLLWTFGGGTRLEIK
B1: the binding result in experiment [1] and in experiment [2] was “binds” each time.
